Experimental data taken from US20180016346A1 (Kyowa Kirin, published 2018).

B1: PI134 phage clone (scFv displayed on M13 phage) (scFv, V domains shown)
VH: QVQLVQSGAEVKKPGASVKVSCKASGYTFTTYDINWVRQATGQGLEWMGWMNPNNGYTGYAQKFQGRVTMTRNTSISTAYMELSSLRSEDTAVYYCARTNWVYWYFDLWGRGTLVTVSS
VL: EIVLTQSPATLSLSPGERATLSCRASQSVSSFLAWYQQKPGQAPRLLIYDASNRATGIPARFSGSGSGTDFTLTISSLEPEDFAVYYCQQRSNWPLTFGPGTKVDIKR
notes: Tested as an scFv on M13 phage (phagemid pCANTAB 5E)
B2: PI105 phage clone (scFv displayed on M13 phage) (scFv, V domains shown)
VH: EVQLVQSGAEVKKPGASVKVSCKASGYTFTTYDINWVRQATGQGLEWLGWMNPNNGYTGYAQKFQGRVTMTRNTSIGTAYMELNSLRSEDTAVYYCARTNWVYWYFDLWGRGTLVTVSS
VL: EIVLTQSPATLSLSPGERATLSCRASQSVSSFLAWYQQKPGQAPRLLIYDASNRATGIPARFSGSGSGTDFTLTISSLEPEDFAVYYCQQRSNWPLTFGPGTKVDIK
notes: Tested as an scFv on M13 phage (phagemid pCANTAB 5E); not shown: scFv linker, domain order, tag and M13 coat-protein fusion of phagemid pCANTAB 5E; copies: 1 + 1
B3: PN170 phage clone (scFv displayed on M13 phage) (scFv, V domains shown)
VH: EVQLVQSGAEVKKPGASVKVSCKASGYTLTSYDINWVRQATGQGLEWMGWMNPNSGYTGYAQKFQDRVTMTRNTAINTAYMELSSLRSEDTAVYYCAREAGYDGIWYFDLWGRGTLVTVSS
VL: EIVLTQSPATLSLSPGERATLSCRASQSVSSFLAWYQQKPGQAPRLLIYDASNRATGIPARFSGSGSGTDFTLTISSLEPEDFAVYYCQQRSNWPLTFGPGTKVDIKR
notes: as for B1
B4: PI143 phage clone (scFv displayed on M13 phage) (scFv, V domains shown)
VH: QVQLVQSGAEVKKPGASVKVSCKASGYTFTTYDINWVRQATGQGLEWMGWMNPNNGYTGYAQKFQGRVTMTRNTSISTAYMELSSLRSEDTAVYYCARTNWVYWYFDLWGRGTTVTVSS
VL: EIVLTQSPATLSLSPGERATLSCRASQSVSSFLAWYQQKPGQAPRLLIYDASNRATGIPARFSGSGSGTDFTLTISSLEPEDFAVYYCQQRSNWPLTFGPGTKVDIKR
notes: Tested as an scFv on M13 phage (phagemid pCANTAB 5E); also called P1143
B5: PI108 phage clone (scFv displayed on M13 phage) (scFv, V domains shown)
VH: QVQLVQSGAEVKKPGASVKVSCKASGYTFTTYDINWVRQATGQGLEWMGWMNPNNGYTGYAQKFQGRVTMTRNTSISTAYMELTSLRSEDTAVYYCARTNWVYWYFDLWGRGTLVTVSS
VL: EIVLTQSPATLSLSPGERATLSCRASQSVSSFLAWYQQKPGQAPRLLIYDASNRATGIPARFSGSGSGTDFTLTISSLEPEDFAVYYCQQRSNWPLTFGPGTKVDIKR
notes: as for B1
B6: PN7 phage clone (scFv displayed on M13 phage) (scFv, V domains shown)
VH: EVQLVQSGAEVKKPGASVKVSCKASGYTFTTYDINWVRQATGQGLEWMGWMNPNSGYTGYAQKFQGRVTMTRDTSISTAYMELSSLRSEDTAVYYCARTNWESWYFDLWGRGTLVTVSS
VL: EIVLTQSPATLSLSPGERATLSCRASQSVSSFLAWYQQKPGQAPRLLIYDASNRATGIPARFSGSGSGTDFTLTISSLEPEDFAVYYCQQRSNWPLTFGPGTKVDIKR
notes: as for B1
B7: PL223 phage clone (scFv displayed on M13 phage) (scFv, V domains shown)
VH: EVQLVQSGAEVKKPGASVKVSCKASGYTFTTYDINWVRQATGQGLEWMGWMNPNNGYTGYAQKFQGRVTMTRNTSISTAYMELSSLRSEDTAVYYCARTNWVYWYFDLWGRGTMVTVSS
VL: EIVLTQSPATLSLSPGERATLSCRASQSVSSFLAWYQQKPGQAPRLLIYDASNRATGIPARFSGSGSGTDFTLTISSLEPEDFAVYYCQQRSNWPLTFGPGTKVDIKR
notes: as for B1
B8: PI115 phage clone (scFv displayed on M13 phage) (scFv, V domains shown)
VH: EVQLVQSGAEVKKPGASVKVSCKASGYTFTTYDINWVRQATGQGLEWMGWMNPNNGYTGYAQKFQGRVTMTRNTSISTAYMELSSLRSEDTAVYYCARTNWVYWYFDLWGRGTLVTVSS
VL: EIVLTQSPATLSLSPGERATLSCRASQSVSSFLAWYQQKPGQAPRLLIYDASNRATGIPARFSGSGSGTDFTLTISSLEPEDFAVYYCQQRSNWPLTFGPGTKVDIKR
notes: as for B1
B9: PI127 phage clone (scFv displayed on M13 phage) (scFv, V domains shown)
VH: QVQLVQSGAEVKKPGASVKVSCKASGYTFTTYDINWVRQATGQGLEWLGWMNPNNGYTGYAQKFQGRVTMTRNTSIGTAYMELNSLRSEDTAVYYCARTNWVYWYFDLWGRGTLVTVSS
VL: EIVLTQSPATLSLSPGERATLSCRASQSVSSFLAWYQQKPGQAPRLLIYDASNRATGIPARFSGSGSGTDFTLTISSLEPEDFAVYYCQQRSNWPLTFGPGTKVDIKR
notes: as for B1
B10: PI118 phage clone (scFv displayed on M13 phage) (scFv, V domains shown)
VH: QVQLVQSGAEVKKPGASVKVSCKASGYNLTTYDINWVRQATGQGLEWMGWMNPNSGYTGYAQKFQGRVTMTRNTSIDTAYMELSNLRSEDTAVYYCARTNWVYWYFDLWGRGTLVTVSS
VL: EIVLTQSPATLSLSPGERATLSCRASQSVSSFLAWYQQKPGQAPRLLIYDASNRATGIPARFSGSGSGTDFTLTISSLEPEDFAVYYCQQRSNWPLTFGPGTKVDIKR
notes: as for B1
B11: PI101 phage clone (scFv displayed on M13 phage) (scFv, V domains shown)
VH: EVQLVQSGAEVKKPGASVKVSCKASGYNLATYDINWVRQATGQGLEWMGWMNPNSGYTGYAQKFQGRVTMTRDTSINTAYMELSSLRSEDTAVYYCARTNWVYWYFDLWGRGTLVTVSS
VL: EIVLTQSPATLSLSPGERATLSCRASQSVSSFLAWYQQKPGQAPRLLIYDASNRATGIPARFSGSGSGTDFTLTISSLEPEDFAVYYCQQRSNWPLTFGPGTKVDIKR
notes: as for B1
B12: hTRAILR2-hPSMA bispecific antibody E11-CH1-PI115VH antibody (bispecific antibody, IgG4)
heavy: not shown
VL: EIVLTQSPATLSLSPGERATLSCRASQSVSSFLAWYQQKPGQAPRLLIYDASNRATGIPARFSGSGSGTDFTLTISSLEPEDFAVYYCQQRSNWPLTFGPGTKVDIKR
notes: domain: constant region; The heavy chain is E11 VH, an IgG4 CH1 linker and PI115 VH, followed by the constant region of the vector; All four light chains carry E11 VL
B13: hTRAILR2-hPSMA bispecific antibody E11-ML-PI101VH antibody (bispecific antibody, IgM)
heavy: not shown
VL: EIVLTQSPATLSLSPGERATLSCRASQSVSSFLAWYQQKPGQAPRLLIYDASNRATGIPARFSGSGSGTDFTLTISSLEPEDFAVYYCQQRSNWPLTFGPGTKVDIKR
notes: domain: constant region; All four light chains carry E11 VL
B14: hTRAILR2-hPSMA bispecific antibody E11-CH1-PL223VH antibody (bispecific antibody, IgG4)
heavy: not shown
VL: EIVLTQSPATLSLSPGERATLSCRASQSVSSFLAWYQQKPGQAPRLLIYDASNRATGIPARFSGSGSGTDFTLTISSLEPEDFAVYYCQQRSNWPLTFGPGTKVDIKR
notes: domain: constant region; The heavy chain is E11 VH, an IgG4 CH1 linker and PL223 VH, followed by the constant region of the vector; All four light chains carry E11 VL; also called E11-CHI-PL223VH
B15: hTRAILR2-hPSMA bispecific antibody E11-CH1-PI118VH antibody (bispecific antibody, IgG4)
heavy: not shown
VL: EIVLTQSPATLSLSPGERATLSCRASQSVSSFLAWYQQKPGQAPRLLIYDASNRATGIPARFSGSGSGTDFTLTISSLEPEDFAVYYCQQRSNWPLTFGPGTKVDIKR
notes: domain: constant region; The heavy chain is E11 VH, an IgG4 CH1 linker and PI118 VH, followed by the constant region of the vector; All four light chains carry E11 VL
B16: hTRAILR2-hPSMA bispecific antibody E11-CH1-PI143VH antibody (bispecific antibody, IgG4)
heavy: not shown
VL: EIVLTQSPATLSLSPGERATLSCRASQSVSSFLAWYQQKPGQAPRLLIYDASNRATGIPARFSGSGSGTDFTLTISSLEPEDFAVYYCQQRSNWPLTFGPGTKVDIKR
notes: domain: constant region; The heavy chain is E11 VH, an IgG4 CH1 linker and PI143 VH, followed by the constant region of the vector; All four light chains carry E11 VL
B17: hTRAILR2-hPSMA bispecific antibody E11-CH1-PI127VH antibody (bispecific antibody, IgG4)
heavy: not shown
VL: EIVLTQSPATLSLSPGERATLSCRASQSVSSFLAWYQQKPGQAPRLLIYDASNRATGIPARFSGSGSGTDFTLTISSLEPEDFAVYYCQQRSNWPLTFGPGTKVDIKR
notes: domain: constant region; The heavy chain is E11 VH, an IgG4 CH1 linker and PI127 VH, followed by the constant region of the vector; All four light chains carry E11 VL
B18: hTRAILR2-hPSMA bispecific antibody E11-CH1-PI108VH antibody (bispecific antibody, IgG4)
heavy: not shown
VL: EIVLTQSPATLSLSPGERATLSCRASQSVSSFLAWYQQKPGQAPRLLIYDASNRATGIPARFSGSGSGTDFTLTISSLEPEDFAVYYCQQRSNWPLTFGPGTKVDIKR
notes: domain: constant region; The heavy chain is E11 VH, an IgG4 CH1 linker and PI108 VH, followed by the constant region of the vector; All four light chains carry E11 VL
B19: anti-hPSMA monoclonal antibody 2A10 antibody (antibody, human IgG1, V domains shown)
VH: EVQLVQSGAEVKKPGESLKISCKGSGYSFTSNWIGWVRQMPGKGLEWMGIIYPGDSDTRYSPSFQGQVTISADKSISTAYLQWSSLKASDTAMYYCARQTGFLWSSDLWGRGTLVTVSS
VL: IQLTQSPSSLSASVGDRVTITCRASQDISSALAWYQQKPGKAPKLLIYDASSLESGVPSRFSGYGSGTDFTLTINSLQPEDFATYYCQQFNSYPLTFGGGTKVEIK
notes: Expressed from vector N5KG1 (N5KG1_2A10), the human IgG1 type vector
B20: hTRAILR2-hPSMA bispecific antibody E11-CH1-PI134VH antibody (bispecific antibody, IgG4)
heavy: not shown
VL: EIVLTQSPATLSLSPGERATLSCRASQSVSSFLAWYQQKPGQAPRLLIYDASNRATGIPARFSGSGSGTDFTLTISSLEPEDFAVYYCQQRSNWPLTFGPGTKVDIKR
notes: domain: constant region; All four light chains carry E11 VL; also called E11-CH1-PI134 antibody
B21: hTRAILR2-hPSMA bispecific antibody E11-GL-PI134VH antibody (bispecific antibody, IgG4)
heavy: not shown
VL: EIVLTQSPATLSLSPGERATLSCRASQSVSSFLAWYQQKPGQAPRLLIYDASNRATGIPARFSGSGSGTDFTLTISSLEPEDFAVYYCQQRSNWPLTFGPGTKVDIKR
notes: domain: constant region; All four light chains carry E11 VL; also called E11-GL-PI1134VH

Molecular target: T1, FLAG-hPSMA, extracellular domain protein of hPSMA with a FLAG-tag at the N-terminus (human, UniProt Q04609 44-750)
T1 construct: also called FLAG-PSMA; soluble hPSMA antigen
Experiment: phage ELISA, scFv phage clone on immobilized FLAG-PSMA
Method: The concentrated phage was monocloned and clones having the affinity to FLAG-PSMA were selected by ELISA. In ELISA, MAXISORP STARTUBE (manufactured by NUNC) in which the FLAG-PSMA of Example 5 described below was immobilized thereon, and a site not bound by FLAG-PSMA was blocked by using SuperBlock Blockig Buffer (manufactured by Thermo Fisher Scientific Inc.) was used.
Each phage clone was added to each well and allowed to react at room temperature for 30 minutes, and then each well was washed three times with PBS containing 0.1% Tween 20 (hereinafter referred to as PBS-T). Subsequently, a solution in which horseradish peroxidase-labeled anti-M13 antibody (manufactured by GE Healthcare) was diluted 5000 times with PBS-T containing 10% Block Ace (manufactured by Dainippon Pharma Co., Ltd.) was added to each well by 50 μL and incubated at room temperature for 30 minutes.

T1 sequence (Q04609 other isoform, or with tags, fused parts or gaps): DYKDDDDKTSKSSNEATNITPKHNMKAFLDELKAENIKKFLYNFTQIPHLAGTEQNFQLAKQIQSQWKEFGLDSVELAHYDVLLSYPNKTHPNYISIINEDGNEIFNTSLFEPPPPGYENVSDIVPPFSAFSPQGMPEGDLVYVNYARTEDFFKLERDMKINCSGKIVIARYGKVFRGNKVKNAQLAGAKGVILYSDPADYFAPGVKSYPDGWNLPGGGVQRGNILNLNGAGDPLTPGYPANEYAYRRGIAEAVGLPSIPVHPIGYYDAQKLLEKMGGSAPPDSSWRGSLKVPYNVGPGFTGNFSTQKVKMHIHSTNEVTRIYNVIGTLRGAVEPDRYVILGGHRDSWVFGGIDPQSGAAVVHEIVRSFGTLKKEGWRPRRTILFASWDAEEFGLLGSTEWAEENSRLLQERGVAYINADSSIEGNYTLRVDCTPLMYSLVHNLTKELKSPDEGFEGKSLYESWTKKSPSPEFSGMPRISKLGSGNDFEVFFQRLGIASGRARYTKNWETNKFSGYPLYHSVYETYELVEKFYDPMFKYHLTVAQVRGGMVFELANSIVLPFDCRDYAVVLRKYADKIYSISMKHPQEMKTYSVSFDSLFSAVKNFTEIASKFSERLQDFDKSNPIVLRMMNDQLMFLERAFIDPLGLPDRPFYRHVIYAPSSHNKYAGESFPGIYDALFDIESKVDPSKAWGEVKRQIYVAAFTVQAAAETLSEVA

Binder	binding result
B1	binds
B2	binds
B3	binds
B4	binds
B5	binds
B6	binds
B7	binds
B8	binds
B9	binds
B10	binds
B11	binds

Molecular target: T2, human prostate specific membrane antigen (hPSMA), membrane form on cells (human, UniProt Q04609 1-750)
T2 construct: endogenous on LNCaP clone FGC cells; also called membrane hPSMA
Experiment: flow cytometry on hPSMA/PC3 cells against PC3 cells (no data disclosed)

T2 sequence (Q04609 whole entry): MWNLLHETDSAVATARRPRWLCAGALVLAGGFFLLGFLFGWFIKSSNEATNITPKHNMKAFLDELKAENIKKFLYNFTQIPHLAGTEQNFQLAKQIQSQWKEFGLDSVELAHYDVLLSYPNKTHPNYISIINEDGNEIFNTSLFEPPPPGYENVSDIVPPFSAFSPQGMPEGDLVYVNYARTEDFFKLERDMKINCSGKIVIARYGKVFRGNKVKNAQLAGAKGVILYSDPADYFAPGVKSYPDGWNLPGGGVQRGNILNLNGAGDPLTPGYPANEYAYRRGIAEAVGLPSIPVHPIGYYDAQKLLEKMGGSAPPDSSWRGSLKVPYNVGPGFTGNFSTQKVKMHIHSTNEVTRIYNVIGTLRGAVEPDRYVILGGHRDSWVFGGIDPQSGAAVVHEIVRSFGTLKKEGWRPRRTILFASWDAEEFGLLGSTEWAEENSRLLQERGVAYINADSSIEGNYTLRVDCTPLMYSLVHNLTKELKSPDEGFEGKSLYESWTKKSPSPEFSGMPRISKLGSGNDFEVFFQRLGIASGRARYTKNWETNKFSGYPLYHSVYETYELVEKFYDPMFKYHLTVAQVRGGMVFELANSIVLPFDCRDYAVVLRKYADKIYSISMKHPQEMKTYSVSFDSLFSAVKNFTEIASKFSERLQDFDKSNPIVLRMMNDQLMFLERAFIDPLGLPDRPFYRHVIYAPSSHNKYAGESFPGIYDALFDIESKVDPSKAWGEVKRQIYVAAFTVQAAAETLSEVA

Binder	binding result
B12	binds
B13	binds
B14	binds
B15	binds
B16	binds
B17	binds
B18	binds

Molecular target: T2, human prostate specific membrane …
Experiment: flow cytometry on hPSMA/L929 cells (FIG. 2)
Method: The cells were suspended in a staining buffer [PBS containing 0.1% NaN₃ and 1% FBS] at a concentration of 1×10⁶ cells/mL, and dispensed in a round-bottom 96-well plate (manufactured by Becton Dickinson) by 100 μL/well. After the centrifugation (2000 rpm, 4° C., 2 minutes), each antibody obtained in Example 7 was added to the pellet obtained by removing the supernatant, and suspended, and then left stand at ice temperature for 30 minutes.
After the further centrifugation (2000 rpm, 4° C., 2 minutes), the pellet obtained by removing the supernatant was washed twice with 200 μL/well of the staining buffer. Thereafter, 1 μg/mL of RPE fluorescently labeled mouse anti-human antibody (hinge region) clone 4E3 antibody (manufactured by Southern Bioblot) was added thereto by 50 μL/well and incubated at ice temperature for 30 minutes. After washing twice with the staining buffer, the cells were suspended in 200 μL/well of the staining buffer, and the fluorescence intensity of each cell was measured with the flow cytometer FACSCANTO II (manufactured by Becton Dickinson). The obtained results are illustrated in FIG. 2 and FIG. 3.
hPSMA/L929 cells were stained with anti-TRAILR2 monoclonal antibody E11 antibody, anti-hPSMA monoclonal antibody PI134 antibody, or hTRAILR2-hPSMA bispecific antibody E11-CH1-PI101VH antibody, E11-CH1-PN7VH antibody or E11-CH1-PN170VH antibody. The obtained results are illustrated in FIG. 2.

Binder	binding result
B19	binds
B20	binds
B21	binds
